Literature values, collected in publication PMC9020725.

What was measured:
[1] = biological target: beta-spectrin repeats 10-13 (Homo sapiens) (UniProt P11277)
[2] = biological target: ankyrin band 3 binding domain (Homo sapiens) (UniProt P16157)
Sequence of UniProt P16157 (P16157 1-827): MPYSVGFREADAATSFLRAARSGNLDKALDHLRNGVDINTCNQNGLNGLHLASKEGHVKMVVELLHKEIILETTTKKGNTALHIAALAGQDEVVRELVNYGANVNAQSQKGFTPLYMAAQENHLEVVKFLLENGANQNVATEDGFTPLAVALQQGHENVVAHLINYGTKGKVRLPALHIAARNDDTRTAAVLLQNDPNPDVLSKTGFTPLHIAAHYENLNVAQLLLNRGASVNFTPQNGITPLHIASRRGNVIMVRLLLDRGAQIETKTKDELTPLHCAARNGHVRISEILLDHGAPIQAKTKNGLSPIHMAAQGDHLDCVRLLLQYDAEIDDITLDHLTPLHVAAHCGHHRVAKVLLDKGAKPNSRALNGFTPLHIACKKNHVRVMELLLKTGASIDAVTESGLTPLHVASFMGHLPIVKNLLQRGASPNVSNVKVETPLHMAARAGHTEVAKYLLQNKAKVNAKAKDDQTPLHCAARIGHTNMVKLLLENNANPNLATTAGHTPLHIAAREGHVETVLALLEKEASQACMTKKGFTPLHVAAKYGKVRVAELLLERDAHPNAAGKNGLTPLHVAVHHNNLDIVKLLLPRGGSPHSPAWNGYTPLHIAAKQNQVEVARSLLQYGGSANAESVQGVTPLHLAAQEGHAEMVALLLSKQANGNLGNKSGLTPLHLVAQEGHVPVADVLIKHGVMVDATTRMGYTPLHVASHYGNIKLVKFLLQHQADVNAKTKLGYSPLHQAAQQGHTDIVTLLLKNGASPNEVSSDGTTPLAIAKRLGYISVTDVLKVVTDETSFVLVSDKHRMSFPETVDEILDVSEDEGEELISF

Sequence of UniProt P11277 (P11277 1275-1688): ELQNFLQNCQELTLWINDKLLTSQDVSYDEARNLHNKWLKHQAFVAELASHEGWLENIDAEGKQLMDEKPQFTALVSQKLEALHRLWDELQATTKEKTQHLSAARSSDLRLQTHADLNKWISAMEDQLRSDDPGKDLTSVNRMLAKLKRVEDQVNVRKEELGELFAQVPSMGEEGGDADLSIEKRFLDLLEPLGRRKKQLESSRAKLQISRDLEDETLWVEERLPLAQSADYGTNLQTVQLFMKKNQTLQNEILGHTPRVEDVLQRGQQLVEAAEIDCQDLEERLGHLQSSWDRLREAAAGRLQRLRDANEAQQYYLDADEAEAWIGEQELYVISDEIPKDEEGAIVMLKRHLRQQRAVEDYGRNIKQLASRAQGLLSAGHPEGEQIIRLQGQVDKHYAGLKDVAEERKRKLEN

KAHRP (from UniProt P09346)
Kd [1]: 50 µM
Kd [2]: 1550 nM
